The values below come from patent US11299524B2, “KIF13B-derived peptide and method of inhibiting angiogenesis” (THE BOARD OF TRUSTEES OF THE UNIVERSITY OF ILLINOIS, priority 2016, dated 2022).

Non-standard residues stand in square brackets, D forms with d. Residues, ends and D or L forms follow the SMILES beside them. No end group written: not given here. d2Nal = N[C@H](Cc1ccc2ccccc2c1)C(=O)O; Aib = CC(C)(N)C(=O)O

The target of one series is VEGFR2 (Homo sapiens, UniProt P35968). Description: pull-down binding assay with endogenous VEGFR2 from HUVEC lysates. Further details: endogenous in cells; host or cells: HUVEC. The settings on record: HUVEC lysate, anti-VEGFR2 western blot. The text has this:
Truncated mutants of KIF13B were expressed in BL21 (DE3) or Rosetta-gami and purified as previously described (Yamada, et al. (2014) J. Cell Sci. 127:4518-30; Yamada, et al. (2007) Biochemistry 46:10039-45).
Using recombinant proteins, the binding sites on KIF13B mediating the interaction with VEGFR2 were identified. KIF13B has a motor, forkhead-associated, membrane-associated guanylate kinase-binding stalk, 2 domains of unknown function (DUFs) (DUF3694), and a proline-rich and cytoskeleton-associated protein glycine-rich domain. The DUFs were identified from amino acid sequence similarity on the Pfam database. It has been previously shown that both domains of DUF3694 directly bind recombinant VEGFR2 in vitro (Yamada, et al. (2007) Biochemistry 46:10039-45). To define the specific peptide sequence inhibiting VEGFR2 trafficking, further analysis of the second DUF3694 domain (DUF2, residues 1112-1281 of KIF13B) was carried out. This was based on stability of this domain and a sequence distinct from binding sites for other cargoes of KIF13B (Horiguchi, et al. (2006) J. Cell Biol. 174:425-436; Hanada, et al. (2000) J. Biol. Chem. 275:28774-2878). DUF2 was divided into 3 parts, DUF2A (residues […]), DUF2B (residues 1168-1216), and DUF2C (residues 1217-1281) and each part was expressed as a recombinant protein in bacteria. VEGFR2 was abundantly expressed in HUVECs; thus, cell lysate from HUVECs was incubated with these recombinant proteins on beads, and VEGFR2 binding was determined using the anti-VEGFR2 antibody.
To identify the minimum binding site on VEGFR2, DUF2C was further truncated (DUF2C1-9) (FIG. 1). […] Stability of the C5 peptide was attributed to the 4-6 C-terminal residues. Accordingly, replacing these C-terminal residues with another a peptide, one or more post-translational modifications, one or more non-natural amino acid residues, a macromolecule such as PEG, or a combination thereof, is expected to stabilize the KAI peptide.
Initially, peptide interaction with VEGFR2 was confirmed using the pull-down assay.
To further define the KIF13B residues involved in binding to VEGFR2, truncations of the DUF2C5 peptide were tested for binding to VEGFR2 (Table 3) and compared to binding of DUF2C5 and peptides flanking this region (FIG. 1).
(A western blot detects proteins with antibodies after separation by electrophoresis.)

The test system of series [1] is HUVECs. As to the kind of experiment: VEGF-induced capillary network formation on […] in vitro. It is filed as cell-based, human. The settings on record: truncated mutant expressed by lentivirus in HUVECs. As for the experimental part: (§1) Collagen invasion assay was performed as previously described (Kang, et al. (2011) J. Biol. Chem. 286:42017-26). In vitro capillary network formation on […] (BD Biosciences, San Jose, Calif.) and scratch wound healing assay were performed as previously described (Humtsoe, et al. (2010) Mol. Cell Biol. 30:1593-1606). Fibrin gel sprouting assay was performed as described by Nakatsu & Hughes ((2008) Methods Enzymol. 443:65-82). VEGF (2.2 nmol/L) stimulation was used for all in vitro angiogenesis assays. Transwell migration assay was performed as described by Kaplan, et al. ((2011) Free Radical Res. 45:1124-35) using VEGF (4.4 nmol/L), sphingosine-1-phosphate (S1P) (1 μmol/L), or basic fibroblast growth factor (bFGF) (50 ng/mL) in the presence or absence of kinesin-derived angiogenesis inhibitor (DUF2C5; residues 1238-1260 of KIF13B) at varying concentrations.
(§2) To test the bioactivity of the truncated mutant of KIF13B, DUF2C was expressed by lentivirus vector in HUVECs. […] The collagen invasion system (Kang, et al. (2011) J. Biol. Chem. 286:42017-42026) was used as another angiogenesis assay to test the peptides. After infection with control lentivirus, FLAG-DUF2C, or FLAG-DUF2, HUVECs were seeded on collagen gels. Cell invasion in response to proangiogenic stimuli SIP and VEGF in the gel was monitored for up to 24 hours.
Bioactivities in two-dimensional capillary network formation assay were assessed in HUVECs expressing KIF13B truncated mutants or vector controls. HUVECs were infected with lentiviruses encoding FLAG-C2, -C3, -C5, -C8, -C9, or vector.
Changes in VEGF-induced network formation assay were assessed in […] plugs. […] VEGF-induced EC sprouting was also determined by 3-dimensional culture of HUVECs on beads (Nakatsu & Hughes (2008) Methods Enzymol. 443:65-82).

The conditions of series [2]: cited from earlier work.
In series [3] the test system is HUVECs. Description: collagen invasion assay. It counts as cell-based, human. The settings on record: lentiviral expression; S1P and VEGF; up to 24 hours. As for the experimental part: as §1, §2
For series [4], the system named is vessel formation of mouse ECs. As to the kind of experiment: […] plug vessel formation assay in mice with lentivirus. It is filed as in vivo. The settings on record: lentivirus s.c. with MATRIGEL, VEGF, bFGF, heparin; C57BL mice. As for the experimental part: Hematoxylin and eosin staining of […] plug was supplemented with 4.4 nmol/L VEGF, 50 ng/mL of basic fibroblast growth factor, 60 U of heparin, and 0.8×10^8 IFU lentivirus (vector control, DUF2, or DUF2C5, or CT) and injected s.c. in C57BL6 mice. Data are expressed as means±SEM. N=4, 4, 5, and 5 for vector control, DUF2, DUF2C5, and CT, respectively. *P<0.05 (one-way analysis of variance). CT, residues 1528-1826 of KIF13B.
For the […] plug assay used to assess vessel formation of mouse ECs, C57BL6 males (Jackson Laboratory) were used as previously described (Yang & Proweller (2011) J. Biol. Chem. 286:13741-53). […] supplemented with 4.4 nmol/1 VEGF, 50 ng/ml bFGF, 60 U heparin, and 0.8×10^8 IFU of lentivirus was injected subcutaneously into abdomen. Four days after injection, […] was collected.
To address the role of KIF13B in mediating angiogenesis in vivo, the […] plug assay was performed in mice using lentivirus expressing truncated mutants of KIF13B. High titer of lentivirus was injected with […] s.c. into C57BL mice in the presence of VEGF, bFGF, and heparin.

Chain of VEGFR2 (P35968 20-1356): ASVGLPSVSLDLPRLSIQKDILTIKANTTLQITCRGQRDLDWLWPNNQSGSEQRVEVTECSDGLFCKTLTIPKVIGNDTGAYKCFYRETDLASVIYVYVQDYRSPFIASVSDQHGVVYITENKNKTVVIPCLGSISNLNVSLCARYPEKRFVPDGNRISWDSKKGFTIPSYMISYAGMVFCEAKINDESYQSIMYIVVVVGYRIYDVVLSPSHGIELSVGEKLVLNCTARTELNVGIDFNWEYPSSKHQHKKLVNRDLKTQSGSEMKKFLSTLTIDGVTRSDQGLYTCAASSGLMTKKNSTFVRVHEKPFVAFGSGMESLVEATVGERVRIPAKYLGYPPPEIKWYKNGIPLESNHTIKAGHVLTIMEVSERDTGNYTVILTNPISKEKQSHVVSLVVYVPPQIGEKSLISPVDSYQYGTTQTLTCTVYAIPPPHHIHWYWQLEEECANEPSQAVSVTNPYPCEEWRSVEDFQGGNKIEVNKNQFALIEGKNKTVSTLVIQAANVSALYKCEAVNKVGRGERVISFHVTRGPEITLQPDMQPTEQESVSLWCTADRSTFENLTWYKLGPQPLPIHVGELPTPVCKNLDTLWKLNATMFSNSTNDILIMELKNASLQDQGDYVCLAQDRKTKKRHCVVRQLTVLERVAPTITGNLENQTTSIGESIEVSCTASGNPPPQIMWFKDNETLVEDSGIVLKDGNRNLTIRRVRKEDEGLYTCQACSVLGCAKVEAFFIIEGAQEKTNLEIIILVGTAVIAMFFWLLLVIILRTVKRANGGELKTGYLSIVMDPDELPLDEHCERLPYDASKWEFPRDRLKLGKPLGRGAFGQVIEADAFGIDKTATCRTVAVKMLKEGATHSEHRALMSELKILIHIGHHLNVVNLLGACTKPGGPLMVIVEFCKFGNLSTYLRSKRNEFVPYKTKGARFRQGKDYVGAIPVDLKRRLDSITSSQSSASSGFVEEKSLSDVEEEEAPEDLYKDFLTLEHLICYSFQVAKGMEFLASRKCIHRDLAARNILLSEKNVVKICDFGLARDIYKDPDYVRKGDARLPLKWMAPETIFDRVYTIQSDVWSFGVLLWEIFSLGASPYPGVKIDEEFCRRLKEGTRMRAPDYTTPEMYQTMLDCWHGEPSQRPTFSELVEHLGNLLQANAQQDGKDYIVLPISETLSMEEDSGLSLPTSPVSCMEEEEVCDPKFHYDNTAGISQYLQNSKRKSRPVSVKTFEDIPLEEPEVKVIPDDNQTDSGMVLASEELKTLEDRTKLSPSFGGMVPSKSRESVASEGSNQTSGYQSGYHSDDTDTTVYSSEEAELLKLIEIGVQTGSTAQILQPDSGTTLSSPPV

With “SRGTPVDERLFLIVRVT (listed as Homo sapiens) [DUF2C6, KIF13B residues 1238-1254]”, in the series with VEGFR2, the VEGFR2 binding result is recorded as “partial or unstable binding”.

“TPVDERLFLIVRVTVQ (listed as Homo sapiens) [SEQ ID NO:3, Homo sapiens KAI peptide]”: the VEGFR2 binding entry in the series with VEGFR2 is “sufficient for VEGFR2 binding”.

For the molecule “C2: truncated KIF13B domain, residues 1221-1260, recombinant or lentivirus-expressed (FLAG-C2) (VKAEASWDSAVHGCPQLSRGTPVDERLFLIVRVTVQLSHP; not fully specified (N-terminus); also: FLAG tag; UniProt Q9NQT8 1221-1260, looked up, fragment)”, the “VEGF-induced capillary network formation” value with HUVECs [1] is “significantly reduced”. Also, in the series with VEGFR2, the VEGFR2 binding entry is “bind VEGFR2”.

In general, half-life refers to how long it takes for the measured level to halve. In the case of albiglutide, the half-life in series [2] (in humans) is 140 to 170 h.

Turning to `CC(C)(N)C(=O)N[C@@H](Cc1c[nH]cn1)C(=O)N[C@H](Cc1ccc2ccccc2c1)C(=O)N[C@H](Cc1ccccc1)C(=O)N[C@@H](CCCCN)C(N)=O` [Ipamorelin] (H-[Aib]H[d2Nal][dF]K-NH2), in series [2] (in humans), the terminal half-life result is “about 2 hours”.

On to peginesatide, for which the elimination half-life in series [2] (in healthy volunteers) was 18.9 h.

Regarding “VRVTVQLSHPADMQLVLR (listed as Homo sapiens) [DUF2C8, KIF13B residues 1251-1268]”, the “VEGF-induced capillary network formation” value in the series with HUVECs [1] is listed as “did not significantly reduce”. In addition, the results for the VEGFR2 binding entry in the series with VEGFR2 and with VEGFR2 (listed as C8) were “weakly bind VEGFR2” and “partial or unstable binding”, respectively.

For the molecule “PQLSRGTPVDERLFLIVR (listed as Homo sapiens) [DUF2C9, KIF13B residues 1235-1252]”, in the series on HUVECs [1], the “VEGF-induced capillary network formation” value is given as “did not significantly reduce”. Also, the VEGFR2 binding result with VEGFR2 is “weakly bind VEGFR2”; in the series with VEGFR2 (listed as C9), “partial or unstable binding”.

Consider “DUF2A: residues 1111-1167 of KIF13B, recombinant protein (QKLVSKRDKTEDDADREAQLLEMRLTLTEERNAVMVPSAGSGIPGAPAEWTPVPGME; left off: small tags and cut ends)”, for which, in the series with VEGFR2, the VEGFR2 binding result is given as “failed to bind”.

Consider “TPVDERLFLIVRVTVQLSHPADMQLVLRKR . . . QGF (listed as Homo sapiens) [DUF2C3, KIF13B residues 1241-1281]”, for which the “VEGF-induced capillary network formation” value in the series with HUVECs [1] is “significantly reduced”. For the same molecule, the VEGFR2 binding result with VEGFR2 is given as “bind VEGFR2”.

Turning to `NC(=O)CC[C@@H]1NC(=O)[C@H](Cc2ccccc2)NC(=O)[C@H](Cc2ccc(O)cc2)NC(=O)[C@@H](N)CSSC[C@@H](C(=O)N2CCC[C@H]2C(=O)N[C@@H](CCCN=C(N)N)C(=O)NCC(N)=O)NC(=O)[C@H](CC(N)=O)NC1=O` [vasopressin], the half-life in series [2] (in humans) is 0.167 to 0.583 h.

“DUF2B: residues 1168-1216 of KIF13B, recombinant protein (THIPVIFLDLNADDFSSQDNLDDPEAGGWDATLTGEEEEEFFELQIVKQ; left off: small tags and cut ends)”: the VEGFR2 binding entry with VEGFR2 is on record as “failed to bind”.

B1: DUF2C: residues 1217-1281 of KIF13B, recombinant protein (protein)
chain: HDGEVKAEASWDSAVHGCPQLSRGTPVDERLFLIVRVTVQLSHPADMQLVLRKRICVNVHGRQGF
modifications: left off: small tags and cut ends
notes: residues 1217-1281 of KIF13B, recombinant protein
Turning to B1, in the series with HUVECs [1], the “VEGF-induced capillary network formation” value is given as “sufficient to reduce”. In the series with HUVECs [3], the distance of invasion result is “significantly reduced”, the “invasion of HUVECs into collagen gel” value is “significantly reduced”, the “number of lumen formed” value is “significantly reduced” and the “thickness of invading sprouts” value is reported as “not different among the groups”. For the same molecule, the VEGFR2 binding result in the series with VEGFR2 was “specifically binds”.

B2: CT: C-terminus region of KIF13B (residues 1528 to 1826), negative control (protein, UniProt Q9NQT8 1528-1826, looked up, fragment)
chain: ICDKPAKVPSPPPVIAVTAVTPAPEAQDGPPSPLSEASSGYFSHSVSTATLSDALGPGLDAAAPPGSMPTAPEAEPEAPISHPPPPTAVPAEEPPGPQQLVSPGRERPDLEAPAPGSPFRVRRVRASELRSFSRMLAGDPGCSPGAEGNAPAPGAGGQALASDSEEADEVPEWLREGEFVTVGAHKTGVVRYVGPADFQEGTWVGVELDLPSGKNDGSIGGKQYFRCNPGYGLLVRPSRVRRATGPVRRRSTGLRLGAPEARRSATLSGSATNLASLTAALAKADRSHKNPENRKSWAS
For B2, the “VEGF-induced capillary network formation” value in the series on HUVECs [1] is “formed capillary networks”. Also, the “number of vessels in MATRIGEL plug” value in series [4] is recorded as “no significant effect”. In addition, in the series with VEGFR2, the VEGFR2 binding result was “does not bind”.

B3: DUF2: second DUF3694 domain, residues 1112-1281 of KIF13B (protein, UniProt Q9NQT8 1112-1281, looked up, fragment)
chain: KLVSKRDKTEDDADREAQLLEMRLTLTEERNAVMVPSAGSGIPGAPAEWTPVPGMETHIPVIFLDLNADDFSSQDNLDDPEAGGWDATLTGEEEEEFFELQIVKQHDGEVKAEASWDSAVHGCPQLSRGTPVDERLFLIVRVTVQLSHPADMQLVLRKRICVNVHGRQGF
With B3, in the series on HUVECs [3], the distance of invasion entry was “significantly reduced”, the “invasion of HUVECs into collagen gel” value is “significantly reduced”, the “number of lumen formed” value is listed as “significantly reduced” and the “thickness of invading sprouts” value is listed as “not different among the groups”. Also, the “number of vessels in MATRIGEL plug” value in series [4] is on record as “significantly reduced”.
